The labels stand for the following.
B1: C/EBP bZIP domain (GCN4-C/EBP chimeric protein) (other)
chain: SEYQPSLFALNPMGFSPLDGSKSTNENVSASTSTAKPMVGQLIFDKFIKTEEDPGKAKKSVDKNSNEYRVRRERNNIAVRKSRDKAKQRNVETQQKVLELTSDNDRLRKRVEQLSRELDTLRGIFRQLPESSLVKAMGNCA
notes: Made in E. coli; forms a homodimer; also called C/EBP-C/EBP; wild type C/EBP

Where two headings read alike, the source gives them in different places.

Data set [1] concerns the molecule itself. The data set can be described thus: CD thermal melt, homodimer, 150 mM KCl. The method, then: (§1) CD analyses were performed as described in Materials and Methods of D. Krylov et al., 1994, *EMBO J.,* 13:2849–2861. T_m values were calculated as described in D, Krylov et al., 1994, Ibid, converted to K_{d(25)} and $\Delta G(25)$ using a $\Delta C_p$ of –0.96 kcal/mol° C.^-1 calculated from a T_m versus $\Delta H$ plot for all of the proteins as described herein. All thermal melts were reversible.
(§2) Table 1 presents the melting temperature (T_m,° C.), $\Delta G$ and k_d at 25° C. for CD thermal melts of a variety of proteins either as homodimers or an equimolar mixture of two proteins. […] The (L) denotes 'low' salt conditions (50 mM KCl, 25 mM Tris pH 8.0, 0.5 mM EDTA, 1 mM DTT) and the (H) denotes regular salt conditions (12.5 mM potassium phosphate, pH 7.4, 150 mM KCl, 0.25 mM EDTA, and 0.5 mM DTT). The latter conditions were used in Table 2. "0heptad-F" represents the F zipper with the basic region deleted. The RMS error in $\Delta G$ is 0.2 kcal/mol and 0.5 kcal/mol for homo- and heterodimers respectively.

Data set [2] concerns the molecule itself. The data set can be described thus: CD thermal melt, homodimer, 150 mM KCl, Kd at 25 C. Here is the method: as §1, §2
Data set [3] deals with the molecule itself. The data set can be described thus: CD thermal melt, homodimer, 150 mM KCl, Kd at 25 C. The method, then: as §1, §2
The source holds these as a separate data set.

Data set [4] deals with the molecule itself. The data set can be described thus: CD thermal melt, homodimer, low salt (50 mM KCl), Kd at 25 C. The method, then: as §1, §2
Data set [5] concerns the target B1. The data set can be described thus: CD thermal melt, equimolar mixture, 150 mM KCl. Here is the method:
as §2
(§3) The two chimeras were mixed with the four different length acidic extensions appended to the F zipper and their stability was determined from CD thermal melts.

In data set [6] the target is T1, VBP-C/EBP chimeric protein (VBP: chicken; C/EBP: rat liver).
T1 chain: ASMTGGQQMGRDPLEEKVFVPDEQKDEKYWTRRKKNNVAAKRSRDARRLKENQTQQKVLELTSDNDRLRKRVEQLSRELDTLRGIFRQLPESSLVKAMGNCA
The data set can be described thus: CD thermal melt, equimolar mixture, 150 mM KCl. Here is the method: as §2, §3

The target in data set [7] is T2, GBF-C/EBP chimeric protein (GBF: Arabidopsis thaliana; C/EBP: rat …).
T2 chain: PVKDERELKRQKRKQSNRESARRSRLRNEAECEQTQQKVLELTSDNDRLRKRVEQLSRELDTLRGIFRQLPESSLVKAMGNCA
Kind of data set: CD thermal melt, equimolar mixture, 150 mM KCl. Here is the method: as §2, §3

Data set [8] deals with B1. Kind of data set: CD thermal melt, equimolar mixture, 150 mM KCl, Kd at 25 C. Here is the method:
as §2, §3

The target in data set [9] is T1, VBP-C/EBP chimeric protein. The data set is described as above. The method, then: as §2, §3
Data set [10] deals with T2, GBF-C/EBP chimeric protein. The data set is described as above. The method, then: as §2, §3
Data set [11] addresses T3, bZIP VBP protein (chicken, UniProt Q92172 235-319, limits assumed).
T3 sequence (looked up): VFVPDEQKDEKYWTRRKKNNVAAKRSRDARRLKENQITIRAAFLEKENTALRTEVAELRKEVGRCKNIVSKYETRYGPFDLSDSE
Kind of data set: thermal melt of the mixture equals the sum of the two homodimer curves (FIG. 5B).

In data set [12] the target is T4, 0heptadMax (dimerization domain of Max without an acidic extension) (UniProt P61244 44-113, limits assumed).
T4 construct: domain: dimerization domain; also called OheptadMax
Kind of data set: heterodimer with c-Myc, dimerization study of FIG. 9.

The target of data set [13] is B1. The data set can be described thus: CD thermal melt, equimolar mixture, 150 mM KCl. Here is the method: as §1, §2
Data set [14] has as its target B1. Kind of data set: CD thermal melt, equimolar mixture, 150 mM KCl, Kd at 25 C. The method, then: as §1, §2
The target in data set [15] is T5, c-Jun (unmodified) (UniProt P05412 241-331, limits assumed). The data set can be described thus: thermal melt of the mixture (FIG. 4).
Data set [16] deals with T5, c-Jun (unmodified). The data set can be described thus: from thermal melts of FIG. 4, Kd at 37 C.
Data set [17] concerns the target B1. Kind of data set: thermal melt of the mixture equals the sum of the two homodimer curves (FIG. 5A).

T5 sequence (P05412 241-331 limits assumed): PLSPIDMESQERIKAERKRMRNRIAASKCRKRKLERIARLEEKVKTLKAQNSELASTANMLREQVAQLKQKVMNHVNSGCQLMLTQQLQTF
T4 sequence (P61244 other isoform, or with tags, fused parts or gaps limits assumed): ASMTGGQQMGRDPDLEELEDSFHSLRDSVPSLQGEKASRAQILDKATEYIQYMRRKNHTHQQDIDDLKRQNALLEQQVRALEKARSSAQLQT

In the case of B1, the “deltaG at 25 C” value in [1] was -10.9 kcal/mol. Also, the Kd (in general, the free concentration of one partner at which half of the binding sites on the other are occupied at equilibrium, for simple one-to-one binding) came out at 10 nM in data set [2], 10 nM in data set [3] and 30 nM in data set [4].

B2: 3heptad-F (designed binder)
chain: ASMTGGQQMGRDPGGGLARENEELEKEAEELEQENAELEQEVLELESRNDRLRKEVEQLERELDTLRGIFRQLPESSLVKAMGNCA
notes: also called aZIP 3heptadF (CEBP specific)
As for B2, the “deltaG at 25 C” value in data set [1] was -7.9 kcal/mol; in data set [5], -14.3 kcal/mol; in data set [6] it was -14.7 kcal/mol; in [7] it was -14.2 kcal/mol. Further, the midpoint of thermal melting (Tm) (commonly the temperature at which the thermal transition is half complete) came out at 63.8 °C in data set [5], 64.2 °C in data set [6] and 64 °C in data set [7]. In addition, the dissociation constant (Kd) in data set [3] worked out at 2000 nM; in [8], 0.04 nM; in data set [9], 0.02 nM; in data set [10], 0.04 nM. The binding result in [11] was “no binding”.

B3: c-Myc bHLH protein (other)
chain: NDKRRTHNVLERQRRNELKRSFFALRDQIPELENNEKAPKVVILKKATAYILSIQADEHKLTSEKDLLRKRREQLKHKLEQLRNSGA
In [12], B3 returned a Kd of 0.6 nM.

B4: 0heptad-F (F zipper with the basic region deleted) (designed binder)
chain: ASMTGGQQMGRDPGGGTQQEVLELESRNDRLRKEVEQLERELDTLRGIFRQLPESSLVKAMGNCA
notes: Made in E. coli; the initiator methionine is processed off; also called heterodimerizing zipper; 0heptad-F (H)
As for B4, the “deltaG at 25 C” value was -8 kcal/mol in data set [1], -11.8 kcal/mol in data set [5], -12.2 kcal/mol in data set [6] and -11.9 kcal/mol in data set [7]. The melting temperature (Tm) in data set [13] worked out at 55.4 °C; in data set [5] it was 55.4 °C; in data set [6], 55.1 °C; in data set [7], 55.7 °C. For the same molecule, the Kd in data set [2] was 2000 nM; in data set [3], 1000 nM; in data set [14], 3 nM; in [8], 3 nM; in [9], 1 nM; in [10], 2 nM.

B5: 4heptadFos (c-Fos with the basic region replaced by four acidic heptad repeats) (designed binder)
chain: MASMTGGQQMGRDPDLEQRAEELARENEELEKEAEELEQENAELEAETDQLEDEKSALQTEIANLLKEKEKLEFILAAHRPACKIP
notes: how the two entries divide the protein is not explained; also called aZIP 4heptadFos; aFos
Consider B5, for which the midpoint of thermal melting (Tm) in data set [15] turned out to be 61 °C. In data set [16], this molecule had a Kd of 6 nM. For the same molecule, the binding result in data set [17] is “no binding”.

For the origin of these results see US6361968 (US Dept. of Health and Human Services, dated 1997).
